Measured values reported in patent US20250218531A1 (ABSCI, published 2025).

Molecular target: T1, human vascular endothelial growth factor A (VEGF-A) (human, UniProt P15692 220-313)
T1 sequence: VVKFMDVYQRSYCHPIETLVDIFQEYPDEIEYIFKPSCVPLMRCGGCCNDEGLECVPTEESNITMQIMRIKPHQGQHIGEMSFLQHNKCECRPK
Assay: SPR, Fab format

B1: De novo ranibizumab HCDR3 variant ASGNFSYPDDYGMDW (SEQ ID NO: 50) (Fab, V domains shown)
VH: EVQLVESGGGLVQPGGSLRLSCAASGYDFTHYGMNWVRQAPGKGLEWVGWINTYTGEPTYAADFKRRFTFSLDTSKSTAYLQMNSLRAEDTAVYYCASGNFSYPDDYGMDWWGQGTLVTVSS
VL: DIQLTQSPSSLSASVGDRVTITCSASQDISNYLNWYQQKPGKAPKVLIYFTSSLHSGVPSRFSGSGSGTDFTLTISSLQPEDFATYYCQQYSTVPWTFGQGTKVEIKR
Q: With B1 as the binder, how does the Kd read?
A: 48.2 nM
